# Patent US20180282401A1 (AXON NEUROSCIENCE, published 2018)
# T1: 282-311/4R
# T1 peptide: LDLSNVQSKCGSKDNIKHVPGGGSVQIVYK
# T2: 291-320/4R
# T2 peptide: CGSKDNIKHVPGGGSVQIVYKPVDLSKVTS
# T3: 256-285/4R
# T3 peptide: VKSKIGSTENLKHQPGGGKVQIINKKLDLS
# T4: 264-293/3R
# T4 peptide: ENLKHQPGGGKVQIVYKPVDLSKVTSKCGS
# T5: 314-342/R4
# T5 peptide: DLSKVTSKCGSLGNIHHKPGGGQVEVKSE
# T6: 259-288/3R (not fully specified)
# T6 peptide: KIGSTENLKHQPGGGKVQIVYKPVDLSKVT
# T7: 264-293/4R
# T7 peptide: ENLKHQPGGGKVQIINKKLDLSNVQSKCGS
# T8: 281-305/4R
# T8 peptide: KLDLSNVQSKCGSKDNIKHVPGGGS
# T9: 259-288/4R
# T9 peptide: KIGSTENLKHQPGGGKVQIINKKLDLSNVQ
# T10: 256-285/3R (not fully specified)
# T10 peptide: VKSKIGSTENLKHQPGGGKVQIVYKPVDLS
# B1: monoclonal antibody DC8E8 (antibody, V domains shown)
# VH: QVQLQQSGPELVKPGTSVKMPCKASGYIFTDYVISWVKQRTGQGLEWIGEIFPRSGSTYYNEKFKGKATLTADKSSNTAYMQLSSVTSEDSAVYFCARDYYGTSFAMDYWGQGTSVTVSS
# VL: DIVMSQSPSSLAVSAGEKVTMSCKSSQSLLNSRTRKNYLAWYQQKPGQSPKLLIYWASTRESGVPDRFTGSGSGTDFTLTISSVQAEDLAVYYCKQSFYLRTFGGGTKLDIK
# notes: also called mAb DC8E8; antibody of hybridoma ATCC PTA-11994
# B2: recombinant scFv fragment of monoclonal antibody DC8E8 (scDC8E8v) (scFv, V domains shown)
# VH: B1 VH
# VL: B1 VL
# Columns and labels:
# [1] = biological target: B1; test: competition ELISA: peptide pre-incubated with DC8E8 (1 µg/ml), then on plates coated with the competitor tauΔ(1-150;392-441)/4R; peptide series 1.25-160 µM in paragraph 380, the concentration of the bars is not given
# [2] = biological target: B1; test: competition ELISA: peptide pre-incubated with DC8E8, binding to plate-coated tauΔ(1-150;392-441)4R measured
# Experimental: The coated ELISA plates were washed 4 times with PBS/Tween 20 (phosphate-buffered saline supplemented with 0.05% v/v Tween 20), and blocked with PBS/Tween 20 for 2 h at 25° C. Each of the peptides was separately dissolved in PBS at the final concentration of 5 mM. […] The antibody/peptide mixtures were incubated for 1 hr at 25° C. on a rotating platform set to 250 rpm. One hundred microliters of the antibody/peptide mixtures were then transferred into the prepared ELISA plates and incubated for 1 hr at 25° C. on a rotating platform set to 250 rpm. The ELISA plates were washed 4× times with PBS/Tween 20. The ELISA plates were then incubated with 100 μl of Polyclonal Goat Anti-Mouse Immunoglobulins/HRP (Dako, #P0447) diluted 1:4 000 in PBS/Tween 20 and incubated for 1 hr at 25° C. on a rotating platform set to 250 rpm. The ELISA plates were washed 4× times with PBS/Tween20. […] The developed signal was measured by reading at 490 nm (e.g. using the Victor Multilabel Counter (Wallac).
# human tau isoform 2N4R [3] = biological target: T11, human tau isoform 2N4R (human, UniProt P10636 1-758); test: SPR (BIACORE3000, CM5), DC8E8 captured by anti-mouse antibody, tau protein injected, 25 °C, PBS-P, two-phase reaction model
# T11 construct: also called tau 2N4R; tau441
# T11 sequence (P10636 other isoform, or with tags, fused parts or gaps limits assumed): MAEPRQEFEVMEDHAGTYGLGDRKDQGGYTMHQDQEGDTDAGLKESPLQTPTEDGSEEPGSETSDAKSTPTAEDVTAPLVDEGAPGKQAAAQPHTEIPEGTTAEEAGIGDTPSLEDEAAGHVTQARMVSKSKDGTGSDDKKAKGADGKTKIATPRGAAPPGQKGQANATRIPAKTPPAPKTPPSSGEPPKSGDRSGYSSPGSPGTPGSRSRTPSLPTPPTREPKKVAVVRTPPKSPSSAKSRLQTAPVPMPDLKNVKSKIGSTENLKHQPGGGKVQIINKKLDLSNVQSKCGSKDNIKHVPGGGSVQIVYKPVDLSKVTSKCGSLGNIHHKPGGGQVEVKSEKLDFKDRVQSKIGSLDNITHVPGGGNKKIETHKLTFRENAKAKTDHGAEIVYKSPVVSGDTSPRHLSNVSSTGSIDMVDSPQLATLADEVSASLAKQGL
# Experimental: (§1) A BIACORE3000 instrument with a CM5 sensor chip (Biacore AB, Uppsala) was used for the SPR assays. […] These experiments were done at 25° C. in PBS pH 7.4 with 0.005% of P20 (PBS-P) as the running buffer.
# (§2) Kinetic rate constants were approximated globally, maximal responses were fitted locally, and the bulk response was set to zero.
# tauΔ(1-150;392-441)/4R [4] = biological target: T12, tauΔ(1-150;392-441)/4R (human, UniProt P10636 468-708); test: as above
# T12 construct: Recombinant truncated human tau, numbered on 2N4R; also the transgene of SHR72 rats; also called misdisordered tau; pathological tau
# T12 sequence (P10636 other isoform, or with tags, fused parts or gaps mutant limits assumed): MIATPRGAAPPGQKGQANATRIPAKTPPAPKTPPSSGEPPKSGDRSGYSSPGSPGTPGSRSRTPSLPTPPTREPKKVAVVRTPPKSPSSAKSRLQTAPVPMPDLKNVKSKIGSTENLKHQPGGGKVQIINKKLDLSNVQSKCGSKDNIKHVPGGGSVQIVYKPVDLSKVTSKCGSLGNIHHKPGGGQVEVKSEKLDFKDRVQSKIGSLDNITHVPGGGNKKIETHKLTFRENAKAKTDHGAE
# Experimental: as §1, §2
# human tau isoform 2N3R [5] = biological target: T13, human tau isoform 2N3R (human, UniProt P10636 2-758); test: as above
# T13 construct: also called tau 2N3R; tau39
# T13 sequence (P10636 other isoform, or with tags, fused parts or gaps limits assumed): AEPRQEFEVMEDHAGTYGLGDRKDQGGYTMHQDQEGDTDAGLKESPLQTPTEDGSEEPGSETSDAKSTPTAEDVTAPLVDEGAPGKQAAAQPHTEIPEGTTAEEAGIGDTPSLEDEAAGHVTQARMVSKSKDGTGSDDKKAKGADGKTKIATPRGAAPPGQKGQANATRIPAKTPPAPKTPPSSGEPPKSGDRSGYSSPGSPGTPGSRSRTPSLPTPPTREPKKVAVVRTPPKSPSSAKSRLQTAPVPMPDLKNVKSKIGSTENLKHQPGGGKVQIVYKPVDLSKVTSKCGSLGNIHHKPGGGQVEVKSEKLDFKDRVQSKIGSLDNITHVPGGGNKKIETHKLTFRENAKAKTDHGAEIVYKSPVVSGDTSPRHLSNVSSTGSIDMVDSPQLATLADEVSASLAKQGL
# Experimental: as §1, §2
# tauΔ(1-150;392-441)/3R [6] = biological target: T14, tauΔ(1-150;392-441)/3R (human, UniProt P10636 468-708); test: as above
# T14 construct: Also the transgene of SHR24 rats; also called misdisordered three repeat tau; tau type IIB (151-391/R3)
# T14 sequence (P10636 other isoform, or with tags, fused parts or gaps mutant): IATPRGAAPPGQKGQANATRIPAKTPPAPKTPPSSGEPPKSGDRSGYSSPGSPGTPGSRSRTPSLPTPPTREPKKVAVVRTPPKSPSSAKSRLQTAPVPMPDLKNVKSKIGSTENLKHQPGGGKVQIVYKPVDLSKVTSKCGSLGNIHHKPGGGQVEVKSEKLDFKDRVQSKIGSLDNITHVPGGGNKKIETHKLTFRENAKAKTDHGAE
# Experimental: as §1, §2
# human tau isoform 2N3R [7] = biological target: T13, human tau isoform 2N3R; test: as above; remark: listed apart in the source
# Experimental: as §1, §2
# tauΔ(1-150;392-441)/3R [8] = biological target: T14, tauΔ(1-150;392-441)/3R; test: as above; remark: listed apart in the source
# Experimental: as §1, §2
# 282-311/4R = biological target: T1, 282-311/4R; test: ELISA, synthetic peptide coated (5 µg/ml), DC8E8 hybridoma culture supernate, anti-mouse Ig-HRP, absorbance 492 nm
# Experimental: (§3) Microtiter plates were coated overnight at 37° C. with either recombinant tau proteins or with tau peptides (5 μg/ml in PBS, 50 μl/well). […] Bound monoclonal antibody was detected with sheep anti-mouse Ig HRP-conjugated (DAKO). The reaction was developed with orthophenylenediamine solution as a peroxidase substrate and stopped with 50 μl of 2 M H₂SO₄. Absorbance was measured at 492 nm using a Multiscan MCC/340 ELISA reader (Labsystems). Readouts with an absorbance value of at least twice the value of the negative controls (PBS) were considered positive.
# 291-320/4R = biological target: T2, 291-320/4R; test: as above
# Experimental: as §3
# 256-285/4R = biological target: T3, 256-285/4R; test: as above
# Experimental: as §3
# 264-293/3R = biological target: T4, 264-293/3R; test: as above
# Experimental: as §3
# 275-304/4R = test: as above
# Experimental: as §3
# 314-342/R4 = biological target: T5, 314-342/R4; test: as above
# Experimental: as §3
# 259-288/3R = biological target: T6, 259-288/3R; test: as above
# Experimental: as §3
# 264-293/4R = biological target: T7, 264-293/4R; test: as above
# Experimental: as §3
# 281-305/4R = biological target: T8, 281-305/4R; test: as above
# Experimental: as §3
# 259-288/4R = biological target: T9, 259-288/4R; test: as above
# Experimental: as §3
# 256-285/3R = biological target: T10, 256-285/3R; test: as above
# Experimental: as §3
# human tau isoform 2N4R [9] = biological target: T11, human tau isoform 2N4R; test: SPR (BIACORE3000, CM5), DC8E8 captured by anti-mouse antibody, tau protein injected, 25 °C, PBS-P, two-phase reaction model; remark: listed apart in the source
# Experimental: as §1, §2
# tauΔ(1-150;392-441)/4R [10] = biological target: T12, tauΔ(1-150;392-441)/4R; test: as above; remark: listed apart in the source
# Experimental: as §1, §2
# human tau isoform 2N4R [11] = biological target: T11, human tau isoform 2N4R; test: SPR (Biacore 3000, CM5), His-tagged scDC8E8v captured by anti-His antibody (60 RU), tau protein injected at 100 µl/min, 25 °C, 1:1 model
# tauΔ(1-150;392-441)/4R [12] = biological target: T12, tauΔ(1-150;392-441)/4R; test: as above
binder,measurement,setting,value
DNIKHVPGGGS (check the listing) [tau peptide 295-DNIKHVPGGGS-305 (SEQ ID NO: 171)],binding result,[1],binds
SVFQHLPGGGSC (Designed peptide keeping HxPGGG) [designer therapeutic epitope 2 SVFQHLPGGGSC (SEQ ID NO: 251)],IC50 (read off the curve),[2],~30 nM
B1,Ka,human tau isoform 2N4R [3],1.1e+07 M⁻¹
same,Ka,tauΔ(1-150;392-441)/4R [4],7.3e+07 M⁻¹
same,Ka,human tau isoform 2N3R [5],290000 M⁻¹
same,Ka,tauΔ(1-150;392-441)/3R [6],1.1e+06 M⁻¹
same,koff,human tau isoform 2N3R [7],0.5 s⁻¹
same,kon,human tau isoform 2N3R [7],140000 M⁻¹ s⁻¹
same,koff,tauΔ(1-150;392-441)/3R [8],0.5 s⁻¹
same,kon,tauΔ(1-150;392-441)/3R [8],490000 M⁻¹ s⁻¹
same,binding result,282-311/4R,binds
same,binding result,291-320/4R,binds
same,binding result,256-285/4R,binds
same,binding result,264-293/3R,binds
same,binding result,275-304/4R,binds
same,binding result,314-342/R4,binds
same,binding result,259-288/3R,binds
same,binding result,264-293/4R,binds
same,binding result,281-305/4R,binds
same,binding result,259-288/4R,binds
same,binding result,256-285/3R,binds
same,koff,human tau isoform 2N4R [9],0.04 s⁻¹
same,kon,human tau isoform 2N4R [9],460000 M⁻¹ s⁻¹
same,koff,tauΔ(1-150;392-441)/4R [10],0.04 s⁻¹
same,kon,tauΔ(1-150;392-441)/4R [10],2.6e+06 M⁻¹ s⁻¹
B2,Ka,human tau isoform 2N4R [11],270000 M⁻¹
same,koff,human tau isoform 2N4R [11],0.2 s⁻¹
same,kon,human tau isoform 2N4R [11],57000 M⁻¹ s⁻¹
same,Ka,tauΔ(1-150;392-441)/4R [12],8.1e+06 M⁻¹
same,koff,tauΔ(1-150;392-441)/4R [12],0.02 s⁻¹
same,kon,tauΔ(1-150;392-441)/4R [12],180000 M⁻¹ s⁻¹
GWSIHSPGGGSC (Designed peptide keeping HxPGGG) [designer therapeutic epitope 1 GWSIHSPGGGSC (SEQ ID NO: 250)],IC50 (read off the curve),[2],2000 to 3000 nM
